From US6369030 (ROCKFELLER UNIVERSITY, dated 2002) come the findings set out here.

For experiment [1], the target named is PCAF histone acetyltransferase (full length, purified recombinant) (UniProt Q92831 1-832, limits assumed). In words: cell-based or functional assay.
The target of experiment [2] is p300 histone acetyltransferase (full length, purified recombinant) (UniProt Q09472 2-2414, limits assumed). In words: cell-based or functional assay.
Chain of p300 histone acetyltransferase (full length, purified recombinant) (Q09472 2-2414 limits assumed): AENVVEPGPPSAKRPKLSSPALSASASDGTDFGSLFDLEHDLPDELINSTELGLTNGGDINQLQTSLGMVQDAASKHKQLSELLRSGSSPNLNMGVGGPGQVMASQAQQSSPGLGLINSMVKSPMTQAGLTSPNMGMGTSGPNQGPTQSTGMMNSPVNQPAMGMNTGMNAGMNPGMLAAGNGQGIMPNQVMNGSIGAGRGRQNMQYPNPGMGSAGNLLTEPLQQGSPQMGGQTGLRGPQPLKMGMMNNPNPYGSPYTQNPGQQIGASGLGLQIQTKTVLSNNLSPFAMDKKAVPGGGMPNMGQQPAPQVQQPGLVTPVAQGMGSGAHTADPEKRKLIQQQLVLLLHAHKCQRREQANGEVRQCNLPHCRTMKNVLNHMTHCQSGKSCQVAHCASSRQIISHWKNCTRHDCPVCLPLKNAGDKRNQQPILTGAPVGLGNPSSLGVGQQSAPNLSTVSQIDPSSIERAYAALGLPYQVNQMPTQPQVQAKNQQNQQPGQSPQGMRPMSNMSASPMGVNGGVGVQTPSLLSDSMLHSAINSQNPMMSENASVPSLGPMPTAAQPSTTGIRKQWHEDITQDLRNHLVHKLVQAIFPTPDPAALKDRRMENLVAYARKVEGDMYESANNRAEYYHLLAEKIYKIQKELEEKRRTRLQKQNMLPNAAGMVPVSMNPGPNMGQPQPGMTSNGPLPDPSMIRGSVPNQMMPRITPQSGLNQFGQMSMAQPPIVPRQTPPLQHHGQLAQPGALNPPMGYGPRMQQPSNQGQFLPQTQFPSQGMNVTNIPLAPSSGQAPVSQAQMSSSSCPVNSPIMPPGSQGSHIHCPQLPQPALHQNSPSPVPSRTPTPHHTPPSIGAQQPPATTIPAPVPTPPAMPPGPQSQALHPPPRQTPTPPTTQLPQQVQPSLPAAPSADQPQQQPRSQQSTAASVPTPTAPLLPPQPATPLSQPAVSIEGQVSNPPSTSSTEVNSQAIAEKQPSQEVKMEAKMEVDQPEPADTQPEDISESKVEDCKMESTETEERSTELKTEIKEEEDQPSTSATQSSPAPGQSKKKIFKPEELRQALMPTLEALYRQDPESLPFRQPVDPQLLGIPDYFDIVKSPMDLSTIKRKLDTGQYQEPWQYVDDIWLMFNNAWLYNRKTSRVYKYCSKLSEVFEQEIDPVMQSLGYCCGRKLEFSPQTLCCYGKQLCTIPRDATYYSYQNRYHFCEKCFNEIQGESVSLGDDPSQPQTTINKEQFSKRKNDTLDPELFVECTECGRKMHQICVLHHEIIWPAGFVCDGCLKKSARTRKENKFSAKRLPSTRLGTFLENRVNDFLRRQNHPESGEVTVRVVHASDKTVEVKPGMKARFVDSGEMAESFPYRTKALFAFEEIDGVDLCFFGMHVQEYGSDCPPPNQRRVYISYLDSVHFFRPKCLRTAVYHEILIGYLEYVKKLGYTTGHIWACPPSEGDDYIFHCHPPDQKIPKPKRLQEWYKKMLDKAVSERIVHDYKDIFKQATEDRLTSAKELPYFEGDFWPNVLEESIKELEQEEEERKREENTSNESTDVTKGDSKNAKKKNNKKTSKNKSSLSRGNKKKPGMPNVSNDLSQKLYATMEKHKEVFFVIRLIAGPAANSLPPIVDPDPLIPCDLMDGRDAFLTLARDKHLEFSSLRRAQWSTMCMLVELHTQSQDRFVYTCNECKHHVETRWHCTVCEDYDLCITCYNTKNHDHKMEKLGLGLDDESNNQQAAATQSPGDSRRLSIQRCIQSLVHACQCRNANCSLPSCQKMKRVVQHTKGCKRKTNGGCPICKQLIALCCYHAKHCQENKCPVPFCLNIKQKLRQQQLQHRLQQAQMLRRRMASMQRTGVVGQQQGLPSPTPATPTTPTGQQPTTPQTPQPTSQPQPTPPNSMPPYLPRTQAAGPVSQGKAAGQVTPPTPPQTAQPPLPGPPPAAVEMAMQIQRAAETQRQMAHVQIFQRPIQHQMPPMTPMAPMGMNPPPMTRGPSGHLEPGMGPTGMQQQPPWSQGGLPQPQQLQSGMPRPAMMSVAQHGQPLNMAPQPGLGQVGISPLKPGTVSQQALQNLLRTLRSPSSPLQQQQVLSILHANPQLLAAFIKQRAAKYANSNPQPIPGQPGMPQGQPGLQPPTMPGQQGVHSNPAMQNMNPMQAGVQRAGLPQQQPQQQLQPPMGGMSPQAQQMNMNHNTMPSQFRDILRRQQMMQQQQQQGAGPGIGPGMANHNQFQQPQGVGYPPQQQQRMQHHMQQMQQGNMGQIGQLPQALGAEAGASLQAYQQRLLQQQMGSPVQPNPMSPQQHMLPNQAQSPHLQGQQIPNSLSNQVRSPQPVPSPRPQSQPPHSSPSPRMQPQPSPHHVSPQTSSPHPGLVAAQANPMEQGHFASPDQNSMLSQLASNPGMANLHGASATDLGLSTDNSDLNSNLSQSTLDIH

Chain of PCAF histone acetyltransferase (full length, purified recombinant) (Q92831 whole entry): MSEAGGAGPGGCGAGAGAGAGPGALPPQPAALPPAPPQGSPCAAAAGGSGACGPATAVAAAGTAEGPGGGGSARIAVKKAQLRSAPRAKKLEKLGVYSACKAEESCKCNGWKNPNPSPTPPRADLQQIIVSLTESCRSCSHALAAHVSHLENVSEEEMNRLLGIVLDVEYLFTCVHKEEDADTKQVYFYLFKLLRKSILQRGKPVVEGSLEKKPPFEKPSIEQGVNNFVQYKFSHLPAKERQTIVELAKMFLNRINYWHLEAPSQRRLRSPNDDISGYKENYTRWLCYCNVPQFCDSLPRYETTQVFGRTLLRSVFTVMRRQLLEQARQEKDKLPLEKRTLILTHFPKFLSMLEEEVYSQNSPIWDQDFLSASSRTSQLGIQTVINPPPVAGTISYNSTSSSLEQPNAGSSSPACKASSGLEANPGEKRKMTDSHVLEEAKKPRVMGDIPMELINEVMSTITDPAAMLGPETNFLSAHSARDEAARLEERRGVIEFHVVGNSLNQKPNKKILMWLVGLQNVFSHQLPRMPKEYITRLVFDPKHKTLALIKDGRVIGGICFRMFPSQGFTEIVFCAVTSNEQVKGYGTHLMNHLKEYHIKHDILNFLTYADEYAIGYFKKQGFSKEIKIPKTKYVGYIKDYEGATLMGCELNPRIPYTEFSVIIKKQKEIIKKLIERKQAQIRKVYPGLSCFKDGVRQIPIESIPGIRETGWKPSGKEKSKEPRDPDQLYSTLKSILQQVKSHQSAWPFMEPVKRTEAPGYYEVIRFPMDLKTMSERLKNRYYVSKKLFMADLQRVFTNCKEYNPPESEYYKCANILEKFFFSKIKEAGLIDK

For Ac-GGKAPRK-NH2 (also: further groups not given here) [H3-CoA-7], the “IC50 with PCAF (µM), HAT activity inhibition, mixed histones” value in experiment [1] was more than 20 µM. Moreover, in experiment [2], the “IC50 with p300 (µM), HAT activity inhibition, mixed histones” value is more than 30 µM.
